How the values were obtained:
[1] = biological target: T1, human PROKR1 (1-62)-hFc (human); assay: SPR (Biacore 4000), 25 C, antibody captured, antigen injected at 25 and 100 nM
T1 construct: also called soluble human PROKR1 (N-terminal portion)
Method: (§1) Kinetic experiments were carried out using HBS-EP (10 mM HEPES, 150 mM NaCl, 3 mM EDTA, 0.05% Surfactant P20, pH 7.4) as both the running buffer and the sample buffer. Antigen-antibody association rates were measured by injecting 2 concentrations (25 and 100 nM) of both human PROKR1 (1-62)-hFc (SEQ ID NO:179) and human PROKR2(1-53)-hFc (SEQ ID NO:180) over the captured antibody surface. Antibody-antigen association was monitored for 90 seconds while dissociation was monitored for 360 seconds. Kinetic on-rate (kₐ) and off-rate (kd) constants were determined from the data using Scrubber software version 2.0 c. Binding dissociation equilibrium constants (KD) and dissociative half-lives (t 1/2) were calculated from the kinetic rate constants as: KD=kd/kₐ and t 1/2=ln(2)/kd.

[2] = biological target: T2, human PROKR2 (human, UniProt Q8NFJ6 1-384); assay: flow cytometry, HEK293 cells expressing the target, 13 nM antibody
T2 construct: Expressed on engineered HEK293 or CHO cells; also called hPROKR2; prokineticin receptor 2
Method: (§2) Anti-PROKR antibodies generated in accordance with Example 1 were tested for the ability to bind to human, mouse, and monkey PROKR1 and PROKR2. For these experiments, HEK293 cells were engineered to express: human PROKR1; human PROKR2; mouse PROKR1; mouse PROKR2; cynomolgus monkey PROKR1; or cynomolgus monkey PROKR2. Binding of anti-human PROKR antibodies to the PROKR-expressing cell lines was measured by flow cytometry.
(§3) Adherent cells were collected using 1 mM EDTA in PBS, then washed, and re-suspended in cold PBS containing 5% FBS. For the binding experiments, each anti-PROKR antibody was added to 250,000 cells in 500 μl of PBS with 5% FBS (final antibody concentration of 13 nM). After incubation for 20 minutes at room temperature, the cells were washed with PBS containing 5% FBS. A secondary antibody, recognizing either human (Jackson Immuno Research, #115-135-205) or mouse Fc (BD Pharmigen, #550826) and conjugated to allophycyanin, was then added to the cell mixture at a final concentration of 13.3 nM. After incubating for 20 minutes on ice, the cells were washed and resuspended in PBS containing 5% FBS and then sorted and analyzed on a FACSCalibur (BD Biosciences) flow cytometer to determine relative binding by the candidate antibodies. The cell samples containing secondary antibody alone were used as negative control for FACS gating. Histograms of cells stained with anti-human PROKR antibodies were compared with cells stained with secondary alone. […] ND=not determined.

[3] = biological target: T3, human PROKR2(1-53)-hFc (human); assay: SPR (Biacore 4000), 25 C, antibody captured
T3 construct: also called soluble human PROKR2 (N-terminal portion)
Method: as §1

[4] = biological target: T4, cynomolgus monkey PROKR1 (cynomolgus monkey (Macaca fascicularis), UniProt G7PMD0 1-393); assay: flow cytometry, HEK293 cells expressing the target
T4 construct: whole, on cells; Expressed on engineered HEK293 cells; also called MfPROKR1; 293/mfPROKR1
Method: as §2, §3

[5] = biological target: T5, mouse PROKR1 (mouse (Mus musculus), UniProt Q9JKL1 1-393); assay: flow cytometry, HEK293 cells expressing the target
T5 construct: whole, on cells; Expressed on engineered HEK293 or CHO cells; also called mPROKR1; 293/mPROKR1
Method: as §2, §3

[6] = biological target: T6, cynomolgus monkey PROKR2 (cynomolgus monkey (Macaca fascicularis), UniProt A0A7N9CAJ3 1-384); assay: flow cytometry, HEK293 cells expressing the target
T6 construct: whole, on cells; Expressed on engineered HEK293 cells; also called MfPROKR2; 293/mfPROKR2
Method: as §2, §3

[7] = biological target: T7, mouse PROKR2 (mouse (Mus musculus), UniProt Q8K458 1-381); assay: flow cytometry, HEK293 cells expressing the target
T7 construct: whole, on cells; Expressed on engineered HEK293 or CHO cells; also called mPROKR2; CHO/mPROKR2
Method: as §2, §3

[8] = biological target: human PROKR1 (human, UniProt Q8TCW9 1-393); assay: cell-based or functional assay
Sequence of human PROKR1 (Q8TCW9 whole entry): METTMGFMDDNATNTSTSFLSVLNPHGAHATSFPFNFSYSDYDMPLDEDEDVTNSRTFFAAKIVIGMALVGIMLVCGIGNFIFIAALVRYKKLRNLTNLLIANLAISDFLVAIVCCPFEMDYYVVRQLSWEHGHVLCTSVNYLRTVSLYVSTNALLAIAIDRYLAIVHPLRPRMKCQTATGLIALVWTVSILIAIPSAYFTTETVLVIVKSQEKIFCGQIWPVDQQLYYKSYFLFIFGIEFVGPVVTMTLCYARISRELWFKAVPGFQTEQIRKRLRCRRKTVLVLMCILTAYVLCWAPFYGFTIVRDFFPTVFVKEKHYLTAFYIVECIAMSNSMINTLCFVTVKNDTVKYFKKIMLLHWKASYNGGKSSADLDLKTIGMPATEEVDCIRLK

T1 sequence (chain, as listed by the source limits assumed): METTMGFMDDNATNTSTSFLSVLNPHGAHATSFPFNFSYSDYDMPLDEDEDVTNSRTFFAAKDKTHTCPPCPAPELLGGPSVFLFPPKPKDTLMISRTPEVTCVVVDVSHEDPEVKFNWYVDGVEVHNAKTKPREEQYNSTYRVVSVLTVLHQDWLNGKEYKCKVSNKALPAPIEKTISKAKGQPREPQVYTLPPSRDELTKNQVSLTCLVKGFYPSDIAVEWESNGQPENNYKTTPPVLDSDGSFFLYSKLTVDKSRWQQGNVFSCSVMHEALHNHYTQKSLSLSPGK
T6 sequence (A0A7N9CAJ3 entry or part of it): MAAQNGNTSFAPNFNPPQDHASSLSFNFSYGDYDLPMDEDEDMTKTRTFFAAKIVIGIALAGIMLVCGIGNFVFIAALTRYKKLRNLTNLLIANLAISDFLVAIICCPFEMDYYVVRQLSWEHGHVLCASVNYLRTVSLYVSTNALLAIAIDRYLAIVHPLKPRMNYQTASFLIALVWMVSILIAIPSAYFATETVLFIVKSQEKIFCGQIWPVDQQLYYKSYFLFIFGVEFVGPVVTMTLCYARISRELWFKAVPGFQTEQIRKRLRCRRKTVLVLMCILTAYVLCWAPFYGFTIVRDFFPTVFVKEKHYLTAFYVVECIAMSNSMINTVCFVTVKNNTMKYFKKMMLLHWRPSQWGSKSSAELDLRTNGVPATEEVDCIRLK
T4 sequence (G7PMD0 entry or part of it): as the sequence (Q8TCW9 whole entry) above, with V22A, T31A, S40G, I82V, V135I, K210R, V246F, D348N, V350A counted along it
T5 sequence (Q9JKL1 whole entry): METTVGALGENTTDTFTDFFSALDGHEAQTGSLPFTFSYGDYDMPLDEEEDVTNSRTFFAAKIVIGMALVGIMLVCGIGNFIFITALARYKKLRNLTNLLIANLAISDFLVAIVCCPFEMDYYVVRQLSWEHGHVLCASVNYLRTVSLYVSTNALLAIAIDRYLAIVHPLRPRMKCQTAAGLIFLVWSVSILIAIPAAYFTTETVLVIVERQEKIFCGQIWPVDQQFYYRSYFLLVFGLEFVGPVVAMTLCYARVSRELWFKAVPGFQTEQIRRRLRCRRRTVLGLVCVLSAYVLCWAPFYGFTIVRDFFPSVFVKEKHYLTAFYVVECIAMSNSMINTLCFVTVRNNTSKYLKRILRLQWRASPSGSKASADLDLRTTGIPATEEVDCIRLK
T2 sequence (Q8NFJ6 whole entry): as the sequence (A0A7N9CAJ3 entry or part of it) above, with A11T, W357R, E364D, A374T counted along it
T7 sequence (Q8K458 whole entry): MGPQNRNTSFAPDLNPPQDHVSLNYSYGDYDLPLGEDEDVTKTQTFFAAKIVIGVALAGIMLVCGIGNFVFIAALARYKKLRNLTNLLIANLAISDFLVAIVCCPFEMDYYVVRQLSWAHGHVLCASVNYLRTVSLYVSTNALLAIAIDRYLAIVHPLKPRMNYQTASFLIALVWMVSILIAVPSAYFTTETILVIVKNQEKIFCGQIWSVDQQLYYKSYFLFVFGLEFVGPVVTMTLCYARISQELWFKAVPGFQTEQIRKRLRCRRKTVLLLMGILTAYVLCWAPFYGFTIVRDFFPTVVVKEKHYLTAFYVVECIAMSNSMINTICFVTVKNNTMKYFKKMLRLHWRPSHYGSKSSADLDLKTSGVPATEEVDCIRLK

B1: H1M6386N (antibody, mouse IgG1, V domains shown)
VH: NVQLVESGGGLVKPGGSLRLSCVASGFTFANAWMTWVRQAPGKGLEWVGRIKSKTDGGTTDHAAPVKGRFIVSRDDSKSTLYLQMNSLKTEDTAVYYCTNYAFQLWGQGTLVTVSS
VL: DIVMTQTPLSSLVTLGQSASISCRSSQGLVHSDGNTYLSWLHQRPGQPPRLLIYKISNRFSGVPDRFTGSGAGTDFTLKISRVEAEDVGVYYCMQSTQFPRTFGQGTKVEIK
notes: Chimeric: human variable domains, mouse constant domains
For B1, the Kd [1] was 4.85 nM, the koff [1] was 0.00103 s⁻¹ and the kon [1] was 212000 M⁻¹ s⁻¹. For the same binder, the t½ [1] was 11 min, the binding result [2] was “binds” and the binding result [3] was “no binding (tested: 25 and 100 nM antigen injected)”. B1: no binding [4]; no binding [5]; no binding [6]. For the same binder, the binding result [7] was “no binding”, the “Block (%), calcium flux, hPROKR1 + PK1 (20 nM hPK1)” value [8] was 92% and the “IC50 (nM), inhibition of calcium flux, hPROKR1 + PK1 (20 nM hPK1)” value [8] was 14.9 nM. For the same binder, the “IC50 (nM), inhibition of calcium flux, hPROKR1 + PK2 (20 nM hPK2)” value [8] was 16.2 nM.
